According to PMC9352680, “A comprehensive thermodynamic model for RNA binding by the Saccharomyces cerevisiae Pumilio protein PUF4”:

Target: T1, PUF4 RNA-binding domain (Saccharomyces cerevisiae, UniProt P25339 537-888)
T1 sequence: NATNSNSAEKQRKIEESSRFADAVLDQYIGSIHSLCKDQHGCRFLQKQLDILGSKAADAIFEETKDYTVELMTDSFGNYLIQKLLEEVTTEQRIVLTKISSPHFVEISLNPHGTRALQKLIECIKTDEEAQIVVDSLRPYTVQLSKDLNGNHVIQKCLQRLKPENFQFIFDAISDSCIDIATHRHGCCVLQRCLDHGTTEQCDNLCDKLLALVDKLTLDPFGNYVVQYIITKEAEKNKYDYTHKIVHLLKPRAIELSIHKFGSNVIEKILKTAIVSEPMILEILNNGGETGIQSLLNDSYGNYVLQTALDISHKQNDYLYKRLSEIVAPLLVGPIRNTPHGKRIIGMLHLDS
Assay: Mg; RNA-MaP; 20 mM Na-HEPES pH 7.4, 30 mM KOAc, 0.75 mM MgCl2, 0.1% Tween-20, 5% glycerol, 0.1 mg/mL BSA, 2 mM DTT; 25 C; 0.0125-409.6 nM protein
Conditions: tags: N-His6-TEV cleaved; C-SNAP kept, Cy3B-labelled; label: tethered on chip by stalled RNA polymerase

Row | Binder | Kd [nM]
1 | UCUCUUAAUAUAUAUUACUUCUCUU (ssRNA) [Id_ii_S1_P4E.3_K4.2_C4.2_[C-2A]_[T-1A]_H4.2_A4.1_F4.1_T4.2_[G10C]] | 56.4
2 | UCUCUUAAUAUAUAUUAACUCUCUU (ssRNA) [Id_ii_S1_P4E.3_K4.2_C4.2_[C-2A]_[T-1A]_H4.2_A4.1_F4.1_T4.2_[G10A]_[T11C]] | 442
3 | UCUCUUUGUCUUUUAUCUCUU (ssRNA) [Ib_S1_P4E.1_K4.1_C4.1_H4.1_[A4C]_A4.1_[A6T]_F4.1_T4.1] | 333
4 | UCUCUUUUUAUAUAUUAUGUCUCUU (ssRNA) [Id_ii_S1_P4E.3_K4.2_C4.2_[C-2T]_H4.2_A4.1_F4.1_T4.2_[G10T]_[T11G]] | 17.9
5 | UCUCUUUUUAUAUAUUACCUCUCUU (ssRNA) [Id_ii_S1_P4E.3_K4.2_C4.2_[C-2T]_H4.2_A4.1_F4.1_T4.2_[G10C]_[T11C]] | 26.2
6 | UCUCUUUUUAUAUAUUAAUUCUCUU (ssRNA) [Id_ii_S1_P4E.3_K4.2_C4.2_[C-2T]_H4.2_A4.1_F4.1_T4.2_[G10A]] | 28.9
7 | UCUCUUUUUAUAUAUUAGCUCUCUU (ssRNA) [Id_ii_S1_P4E.3_K4.2_C4.2_[C-2T]_H4.2_A4.1_F4.1_T4.2_[T11C]] | 10.3
8 | UCUCUUAAUAUAUAUUAGUUCUCUU (ssRNA) [Id_ii_S1_P4E.3_K4.2_C4.2_[C-2A]_[T-1A]_H4.2_A4.1_F4.1_T4.2] | 26.7
9 | UCUCUUUGUCUGUUAUCUCUU (ssRNA) [Ib_S1_P4E.1_K4.1_C4.1_H4.1_[A4C]_A4.1_[A6G]_F4.1_T4.1] | 626
10 | UCUCUUACUAUAUAUUAUCUCUCUU (ssRNA) [Id_ii_S1_P4E.3_K4.2_C4.2_[C-2A]_[T-1C]_H4.2_A4.1_F4.1_T4.2_[G10T]_[T11C]] | 29.3
11 | UCUCUUAUUAUAUAUUAUCUCUCUU (ssRNA) [Id_ii_S1_P4E.3_K4.2_C4.2_[C-2A]_H4.2_A4.1_F4.1_T4.2_[G10T]_[T11C]] | 18.9
12 | UCUCUUACUAUAUAUUAUGUCUCUU (ssRNA) [Id_ii_S1_P4E.3_K4.2_C4.2_[C-2A]_[T-1C]_H4.2_A4.1_F4.1_T4.2_[G10T]_[T11G]] | 22.5
13 | UCUCUUAAUAUAUAUUAUCUCUCUU (ssRNA) [Id_ii_S1_P4E.3_K4.2_C4.2_[C-2A]_[T-1A]_H4.2_A4.1_F4.1_T4.2_[G10T]_[T11C]] | 79.9
14 | UCUCUUUAUAUAUAUUAUCUCUCUU (ssRNA) [Id_ii_S1_P4E.3_K4.2_C4.2_[C-2T]_[T-1A]_H4.2_A4.1_F4.1_T4.2_[G10T]_[T11C]] | 24.5
15 | UCUCUUUAUAUAUAUUACCUCUCUU (ssRNA) [Id_ii_S1_P4E.3_K4.2_C4.2_[C-2T]_[T-1A]_H4.2_A4.1_F4.1_T4.2_[G10C]_[T11C]] | 29.6
16 | UCUCUUAUUAUAUAUUAACUCUCUU (ssRNA) [Id_ii_S1_P4E.3_K4.2_C4.2_[C-2A]_H4.2_A4.1_F4.1_T4.2_[G10A]_[T11C]] | 44.1
17 | UCUCUUAUUAUAUAUUACAUCUCUU (ssRNA) [Id_ii_S1_P4E.3_K4.2_C4.2_[C-2A]_H4.2_A4.1_F4.1_T4.2_[G10C]_[T11A]] | 42.9
18 | UCUCUUUUUAUAUAUUACUUCUCUU (ssRNA) [Id_ii_S1_P4E.3_K4.2_C4.2_[C-2T]_H4.2_A4.1_F4.1_T4.2_[G10C]] | 21
19 | UCUCUUUUUAUAUAUUAUAUCUCUU (ssRNA) [Id_ii_S1_P4E.3_K4.2_C4.2_[C-2T]_H4.2_A4.1_F4.1_T4.2_[G10T]_[T11A]] | 22.2

Row | Binder | Kd [nM]
20 | UCUCUUUAUAUAUAUUACAUCUCUU (ssRNA) [Id_ii_S1_P4E.3_K4.2_C4.2_[C-2T]_[T-1A]_H4.2_A4.1_F4.1_T4.2_[G10C]_[T11A]] | 28.9
21 | UCUCUUACUAUAUAUUAACUCUCUU (ssRNA) [Id_ii_S1_P4E.3_K4.2_C4.2_[C-2A]_[T-1C]_H4.2_A4.1_F4.1_T4.2_[G10A]_[T11C]] | 33
22 | UCUCUUUUUAUAUAUUAAAUCUCUU (ssRNA) [Id_ii_S1_P4E.3_K4.2_C4.2_[C-2T]_H4.2_A4.1_F4.1_T4.2_[G10A]_[T11A]] | 55.1
23 | UCUCUUUGUUUCUUAUCUCUU (ssRNA) [Ib_S1_P4E.1_K4.1_C4.1_H4.1_[A4T]_A4.1_[A6C]_F4.1_T4.1] | 370
24 | UCUCUUAAUAUAUAUUAGCUCUCUU (ssRNA) [Id_ii_S1_P4E.3_K4.2_C4.2_[C-2A]_[T-1A]_H4.2_A4.1_F4.1_T4.2_[T11C]] | 38.8
25 | UCUCUUACUAUAUAUUAUAUCUCUU (ssRNA) [Id_ii_S1_P4E.3_K4.2_C4.2_[C-2A]_[T-1C]_H4.2_A4.1_F4.1_T4.2_[G10T]_[T11A]] | 27.2
26 | UCUCUUACUAUAUAUUACCUCUCUU (ssRNA) [Id_ii_S1_P4E.3_K4.2_C4.2_[C-2A]_[T-1C]_H4.2_A4.1_F4.1_T4.2_[G10C]_[T11C]] | 38.3
27 | UCUCUUACUAUAUAUUACUUCUCUU (ssRNA) [Id_ii_S1_P4E.3_K4.2_C4.2_[C-2A]_[T-1C]_H4.2_A4.1_F4.1_T4.2_[G10C]] | 26.2
28 | UCUCUUACUAUAUAUUAAUUCUCUU (ssRNA) [Id_ii_S1_P4E.3_K4.2_C4.2_[C-2A]_[T-1C]_H4.2_A4.1_F4.1_T4.2_[G10A]] | 37.5
29 | UCUCUUUAUAUAUAUUACUUCUCUU (ssRNA) [Id_ii_S1_P4E.3_K4.2_C4.2_[C-2T]_[T-1A]_H4.2_A4.1_F4.1_T4.2_[G10C]] | 20.6
30 | UCUCUUUGUGUUUUAUCUCUU (ssRNA) [Ib_S1_P4E.1_K4.1_C4.1_H4.1_[A4G]_A4.1_[A6T]_F4.1_T4.1] | 13.1
31 | UCUCUUUAUAUAUAUUACGUCUCUU (ssRNA) [Id_ii_S1_P4E.3_K4.2_C4.2_[C-2T]_[T-1A]_H4.2_A4.1_F4.1_T4.2_[G10C]_[T11G]] | 21.9
32 | UCUCUUUUUAUAUAUUAGGUCUCUU (ssRNA) [Id_ii_S1_P4E.3_K4.2_C4.2_[C-2T]_H4.2_A4.1_F4.1_T4.2_[T11G]] | 22.6
33 | UCUCUUUAUAUAUAUUAACUCUCUU (ssRNA) [Id_ii_S1_P4E.3_K4.2_C4.2_[C-2T]_[T-1A]_H4.2_A4.1_F4.1_T4.2_[G10A]_[T11C]] | 15.7
34 | UCUCUUAUUAUAUAUUAUUUCUCUU (ssRNA) [Id_ii_S1_P4E.3_K4.2_C4.2_[C-2A]_H4.2_A4.1_F4.1_T4.2_[G10T]] | 9.53
35 | UCUCUUAAUAUAUAUUACGUCUCUU (ssRNA) [Id_ii_S1_P4E.3_K4.2_C4.2_[C-2A]_[T-1A]_H4.2_A4.1_F4.1_T4.2_[G10C]_[T11G]] | 163
36 | UCUCUUAAUAUAUAUUACAUCUCUU (ssRNA) [Id_ii_S1_P4E.3_K4.2_C4.2_[C-2A]_[T-1A]_H4.2_A4.1_F4.1_T4.2_[G10C]_[T11A]] | 48.9
37 | UCUCUUAAUAUAUAUUAUUUCUCUU (ssRNA) [Id_ii_S1_P4E.3_K4.2_C4.2_[C-2A]_[T-1A]_H4.2_A4.1_F4.1_T4.2_[G10T]] | 54.1
38 | UCUCUUUUUAUAUAUUAACUCUCUU (ssRNA) [Id_ii_S1_P4E.3_K4.2_C4.2_[C-2T]_H4.2_A4.1_F4.1_T4.2_[G10A]_[T11C]] | 31.8

Row | Binder | Kd [nM]
39 | UCUCUUACUAUAUAUUAAAUCUCUU (ssRNA) [Id_ii_S1_P4E.3_K4.2_C4.2_[C-2A]_[T-1C]_H4.2_A4.1_F4.1_T4.2_[G10A]_[T11A]] | 87.3
40 | UCUCUUAUUAUAUAUUACUUCUCUU (ssRNA) [Id_ii_S1_P4E.3_K4.2_C4.2_[C-2A]_H4.2_A4.1_F4.1_T4.2_[G10C]] | 20.1
41 | UCUCUUUGUCUCUUAUCUCUU (ssRNA) [Ib_S1_P4E.1_K4.1_C4.1_H4.1_[A4C]_A4.1_[A6C]_F4.1_T4.1] | 813
42 | UCUCUUUUUAUAUAUUACGUCUCUU (ssRNA) [Id_ii_S1_P4E.3_K4.2_C4.2_[C-2T]_H4.2_A4.1_F4.1_T4.2_[G10C]_[T11G]] | 30.1
43 | UCUCUUUUUAUAUAUUAUCUCUCUU (ssRNA) [Id_ii_S1_P4E.3_K4.2_C4.2_[C-2T]_H4.2_A4.1_F4.1_T4.2_[G10T]_[T11C]] | 19.8
44 | UCUCUUAUUAUAUAUUAAAUCUCUU (ssRNA) [Id_ii_S1_P4E.3_K4.2_C4.2_[C-2A]_H4.2_A4.1_F4.1_T4.2_[G10A]_[T11A]] | 72.4
45 | UCUCUUUGUGUGUUAUCUCUU (ssRNA) [Ib_S1_P4E.1_K4.1_C4.1_H4.1_[A4G]_A4.1_[A6G]_F4.1_T4.1] | 43.8
46 | UCUCUUACUAUAUAUUAUUUCUCUU (ssRNA) [Id_ii_S1_P4E.3_K4.2_C4.2_[C-2A]_[T-1C]_H4.2_A4.1_F4.1_T4.2_[G10T]] | 25.9
47 | UCUCUUUAUAUAUAUUAAAUCUCUU (ssRNA) [Id_ii_S1_P4E.3_K4.2_C4.2_[C-2T]_[T-1A]_H4.2_A4.1_F4.1_T4.2_[G10A]_[T11A]] | 38.1
48 | UCUCUUUAUAUAUAUUAGCUCUCUU (ssRNA) [Id_ii_S1_P4E.3_K4.2_C4.2_[C-2T]_[T-1A]_H4.2_A4.1_F4.1_T4.2_[T11C]] | 12.7
49 | UCUCUUUUUAUAUAUUAGUUCUCUU (ssRNA) [Id_ii_S1_P4E.3_K4.2_C4.2_[C-2T]_H4.2_A4.1_F4.1_T4.2] | 8.51
50 | UCUCUUUAUAUAUAUUAGUUCUCUU (ssRNA) [Id_ii_S1_P4E.3_K4.2_C4.2_[C-2T]_[T-1A]_H4.2_A4.1_F4.1_T4.2] | 9.8
51 | UCUCUUAAUAUAUAUUACCUCUCUU (ssRNA) [Id_ii_S1_P4E.3_K4.2_C4.2_[C-2A]_[T-1A]_H4.2_A4.1_F4.1_T4.2_[G10C]_[T11C]] | 76.2
52 | UCUCUUACUAUAUAUUACGUCUCUU (ssRNA) [Id_ii_S1_P4E.3_K4.2_C4.2_[C-2A]_[T-1C]_H4.2_A4.1_F4.1_T4.2_[G10C]_[T11G]] | 51.9
53 | UCUCUUAGUAUAUAUUAUCUCUCUU (ssRNA) [Id_ii_S1_P4E.3_K4.2_C4.2_[C-2A]_[T-1G]_H4.2_A4.1_F4.1_T4.2_[G10T]_[T11C]] | 43
54 | UCUCUUAUUAUAUAUUAUGUCUCUU (ssRNA) [Id_ii_S1_P4E.3_K4.2_C4.2_[C-2A]_H4.2_A4.1_F4.1_T4.2_[G10T]_[T11G]] | 18.8
55 | UCUCUUUUUAUAUAUUAAGUCUCUU (ssRNA) [Id_ii_S1_P4E.3_K4.2_C4.2_[C-2T]_H4.2_A4.1_F4.1_T4.2_[G10A]_[T11G]] | 485
56 | UCUCUUAUUAUAUAUUACCUCUCUU (ssRNA) [Id_ii_S1_P4E.3_K4.2_C4.2_[C-2A]_H4.2_A4.1_F4.1_T4.2_[G10C]_[T11C]] | 39
57 | UCUCUUAUUAUAUAUUAUAUCUCUU (ssRNA) [Id_ii_S1_P4E.3_K4.2_C4.2_[C-2A]_H4.2_A4.1_F4.1_T4.2_[G10T]_[T11A]] | 26.5
